Experimental data as given in patent US20040265960A1 (Pfizer, published 2004).

What was measured:
[1] = target: T1, human IL-21R expressed on cells (human, UniProt Q9HBE5 20-538); experiment: cell-based or functional assay
[2] = target: T2, human IL-21R fusion protein (human, UniProt Q9HBE5 20-235, biotinylated in the assay of Example 11 (site not stated)); experiment: DELFIA competition: inhibition of human IL-21R fusion protein binding to captured IL-21-FLAG
T2 construct: Soluble fusion protein (Wyeth); The extracellular domain is said to be about residues 20-235; also called soluble IL-21R fusion protein; biotinylated human IL-21R fusion protein
T2 sequence (Q9HBE5 20-235): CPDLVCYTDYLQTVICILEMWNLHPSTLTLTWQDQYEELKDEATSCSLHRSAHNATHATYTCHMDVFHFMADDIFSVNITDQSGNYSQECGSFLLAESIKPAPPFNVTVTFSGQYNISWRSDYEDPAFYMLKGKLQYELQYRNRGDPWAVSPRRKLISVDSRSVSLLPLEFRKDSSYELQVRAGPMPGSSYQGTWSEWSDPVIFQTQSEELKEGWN
Experimental: ScFv production was induced by addition of 1 mM IPTG to exponentially growing cultures and incubation overnight at 30° C. Crude scFv-containing periplasmic extracts (Griffiths et al.(1993) EMBO J., 12:725-734) were screened for the ability to inhibit the binding of human IL-21R fusion protein to human IL-21-FLAG tagged protein. Briefly, anti-FLAG antibody was immobilized onto plastic and used to capture FLAG-tagged human IL-21 protein. Binding of human IL-21R fusion protein was detected with a Europium-labelled antibody to the IL-21R fusion protein, and time resolved fluorescence was detected with the DELFIA reagent kit (PerkinElmer, Boston, Mass.).

[3] = target: T1, human IL-21R expressed on cells; experiment: cell-based or functional assay; remark: listed apart in the source
[4] = target: T2, human IL-21R fusion protein; experiment: epitope competition assay: bio.hIL21R binding to immobilized MUF IgG (competitor), DELFIA
Experimental: The scFv clones 18A5, 19F5 and 18G4 were further tested in an epitope competition assay in order to determine whether they bound the same or a different epitope than MUF. ScFv-containing periplasmic extracts were prepared as described above for the various clones. Final buffer used was 50 mM MOPS, pH 7.4, 0.5 mM EDTA, 0.5 M sorbitol. The scFv-containing crude periplasmic extracts were screened for the ability to inhibit the binding of biotinlyated human IL-21R fusion protein (bio.hIL21R) to MuF IgG protein immobilized on plastic in a 96 well microtitre plate assay. Binding of bio.hIL21R was detected with Europium-labelled streptavidin and TRF detected using the DELFIA reagent kit (PerkinElmer). Positive clones were used in an epiope competition assay described herein.

[5] = target: T2, human IL-21R fusion protein; experiment: phage ELISA on coated IL-21R fusion protein
Experimental: To establish the specificity of the scFᵥ's for IL-21R, a phage ELISA was performed against the IL-21R fusion protein. Individual TG1 cell colonies from the second selection were transferred to microtiter wells containing 100 μl of -2TYAG medium. M13K07 helper phage ([…]) was added to the exponentially growing TG1 culture, and the samples were incubated for one hour at 37° C. Plates were centrifuged and supernatant was removed, then the remaining pellets were suspended in 100 μl of 2TYAG and incubated overnight at 30° C. with shaking. The next day, plates were centrifuged and phage supernatant was transferred to new microtiter plate wells. Phage was blocked in MPBS prior to ELISA.
Wells of microtiter plates were coated with IL-21R fusion protein or control fusion protein (0.5-2.5 μg/ml) and incubated overnight at 4° C. The next day, fusion protein solution was removed and wells were blocked for 1 hour in MPBS. Wells were washed with PBS, then 50 μl of blocked phage was added. Plates were incubated for 1 hour, then washed 3 times with PBST and 3 times with PBS. Anti-M13-HRP conjugate (Pharmacia, Peapack, N.J.) was added to wells, and the samples were incubated for one hour. Wells were washed 3 times with PBST and 3 times with PBS. […] The color signal was measured by reading absorbance at 450 nm using a microtiter plate reader.

T1 sequence (Q9HBE5 20-538): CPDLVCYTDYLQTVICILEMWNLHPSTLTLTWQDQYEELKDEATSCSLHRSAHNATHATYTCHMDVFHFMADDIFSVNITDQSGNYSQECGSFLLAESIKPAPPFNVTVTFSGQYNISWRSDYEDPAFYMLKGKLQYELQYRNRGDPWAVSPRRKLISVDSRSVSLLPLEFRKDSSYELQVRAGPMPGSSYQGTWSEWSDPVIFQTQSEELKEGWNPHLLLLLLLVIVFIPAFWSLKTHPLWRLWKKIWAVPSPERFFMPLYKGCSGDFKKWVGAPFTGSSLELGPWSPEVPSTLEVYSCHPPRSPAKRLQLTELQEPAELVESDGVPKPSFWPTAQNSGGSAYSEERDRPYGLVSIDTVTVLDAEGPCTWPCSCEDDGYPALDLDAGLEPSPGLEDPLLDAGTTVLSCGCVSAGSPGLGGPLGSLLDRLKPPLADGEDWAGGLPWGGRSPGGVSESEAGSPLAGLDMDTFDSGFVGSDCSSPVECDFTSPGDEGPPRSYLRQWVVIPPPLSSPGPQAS

B1: R18 scFv (scFv)
scFv: QVQLQESGGGLVQPGGSLRLSCAASGFTFSSYAMSWVRQAPGKGLEWVSGISGSGTSTYYADSVKGRFTISRDNSKNTLYLQMNSLRAEDTAVYYCATHISERPRGAFDIWGRGTMVTVSSGGGGSGGGGSGGGGSALSSELTQDPAVSVALGQTVRITCQGDSLRKYHATWYQQKPRQAPVLVVYGKNRRPSGIPDRFSGSSSGNTASLTITGAQAGDEADYYCNSRDTSGLHYVFGAGTKLTVLG
notes: also called hIL21R18; scFv R18 clone
[1]
  IC50 Value (nM) ScFv, hBaf3Mu-1 cell proliferation assay: 473 nM
[2]
  IC50: 770 nM

B2: 19F5 scFv (scFv)
scFv: EVQLVQSGAEVKKPGASVKVSCKASGYAFTDNYIHWVRQAPGQGLEWMGWINPKTGGTNYAQKFQGRVSMTRDTSINTAYMDLSRLTSDDTAVYYCTRSLSPYGGQLLYWGRGTMVTVSSGGGGSGGGGSGGGGSALSSELTQDPAVSVALGQTVRITCQGDSLRRYYASWFQQKPGQAPVLVIFGKNNRPSGIPDRFSASSSGNTASLTITGAQAEDEADYYCNSRDTSINHPVIFGGGTKLTVLG
[1]
  IC50 Value (nM) ScFv, hBaf3Mu-1 cell proliferation assay: 91 nM

B3: MUF scFv (scFv)
scFv: QVQLVQSGAEVKKPGSSVRVSCKASGGTFNIYSVSWVRQAPGQGLEWMGRIIPMRDIANYAQRFQGRVTLTADKSSGTAYMELRGLRSDDTAVYWCATLAGPLDSWGQGTLVTVSSGGGGSGGGGSGGGGSALSSELTQDPAVSVGLGQTVTITCQGGSLRQYYASWYQQKPGQAPVVVIYGKNKRPSGIPDRFSGTTSGNTASLTITGAQAEDEADYYCKSRDSSGNHPLYVFGAGTKLTVLGAAAHHHHHH
[1]
  IC50 Value (nM) ScFv, hBaf3Mu-1 cell proliferation assay: 140 nM
[3]
  IC50, inhibition of cell response to IL-21 (hBaf3Mu-1 proliferation): 268 nM

B4: 18A5 scFv (scFv)
scFv: QVQLQESGPGLVKTSETLSLTCAVSGYSISSGYYWGWIRQPPGKGLEWIGSISHTGNTYYNPPLKSRVTISVDTSKNQFSLKLSSVTAADTAVYYCARGGGISRPEYWGKGTLVTVSSGGGGSGGGGSGGGGSALSSELTQDPPVSVALGQTVTLTCQGDSLRTYYASWYQQKSGQAPILLLYGKHKRPSGIPDRFSGSTSGDTASLTITGAQAEDEADYYCNSRDSSGNPHVLFGGGTQLTVLS
[1]
  IC50 Value (nM) ScFv, hBaf3Mu-1 cell proliferation assay: 213 nM
[4]
  IC50: 114 nM

B5: 18G4 scFv (scFv)
scFv: EVQLVQSGAEVKKPGSSVKVSCKASGGTFNIYSVSWVRQAPGQGLEWMGRIIPMRDIANYAQRFQGRVTLTADKSSGTAYMELRSLRSDDTAVYWCATLAGPLDSWGRGTLVTVSSGGGGSGGGGSGGGGSALSSELTQDPAVSVALGQTVRITCQGDSLRTYYASWYQKRPGQAPILVMYGRNKRPSGIPDRFSGSFSGNRASLTITGAQAEDEADYYCKSRAYSGNLVEFGGGTKLTVLG
[1]
  IC50 Value (nM) ScFv, hBaf3Mu-1 cell proliferation assay: 522 nM
[4]
  IC50: 1.4 nM

B6: MU11 phage clone (scFv)
scFv: EVQLVQSGGGVVQPGRSLRLSCAASGFTFSSYGMHWVRQAPGKGLEWVAVISYDGSNKYYADSVKGRFTISRDNSKNTLYLQMNSLRDEDTAVYYCARHGQYALDIWGQGTMVTVSSGGGGSGGGGSGGGGSDIVMTQSPSTLSASVGDRVTITCRASQGISSWLAWYQQKPGRAPKVLIYKASTLESGVPSRFSGSGSGTDFTLTISSLQPEDFATYYCQQSYSTPWTFGQGTKLEIKRAA
[5]
  binding result: binds

B7: MUF antibody (human IgG1 lambda) (antibody, V domains shown)
VH: QVQLVQSGAEVKKPGSSVRVSCKASGGTFNIYSVSWVRQAPGQGLEWMGRIIPMRDIANYAQRFQGRVTLTADKSSGTAYMELRGLRSDDTAVYWCATLAGPLDSWGQGTLVTVSS
VL: SSELTQDPAVSVGLGQTVTITCQGGSLRQYYASWYQQKPGQAPVVVIYGKNKRPSGIPDRFSGTTSGNTASLTITGAQAEDEADYYCKSRDSSGNHPLYVFGAGTKLTVLG
notes: also called MUF IgG; MuF IgG protein
[4]
  IC50: 0.4 nM
[3]
  IC50, inhibition of cell response to IL-21 (hBaf3Mu-1 proliferation): 3 nM
